Results: PMC12445222

What was measured:
[1] = substrate: ClCCCl; test: ITC initial rates, steady-state fit with substrate inhibition; assay type: biochemical, Xanthobacter autotrophicus; settings: 100 mM glycine buffer, pH 8.6, 15 °C
[2] = substrate: ClCCCl; test: ITC initial rates, steady-state fit; assay type: biochemical, Xanthobacter autotrophicus; settings: 100 mM glycine buffer, pH 8.6, 15 °C

B1: haloalkane dehalogenase (DhlA) (Xanthobacter autotrophicus) (protein)
chain: MINAIRTPDQRFSNLDQYPFSPNYLDDLPGYPGLRAHYLDEGNSDAEDVFLCLHGEPTWSYLYRKMIPVFAESGARVIAPDFFGFGKSDKPVDEEDYTFEFHRNFLLALIERLDLRNITLVVQDWGGFLGLTLPMADPSRFKRLIIMNACLMTDPVTQPAFSAFVTQPADGFTAWKYDLVTPSDLRLDQFMKRWAPTLTEAEASAYAAPFPDTSYQAGVRKFPKMVAQRDQACIDISTEAISFWQNDWNGQTFMAIGMKDKLLGPDVMYPMKALINGCPEPLEIADAGHFVQEFGEQVAREALKHFAETE
B1 showed a Km [1] of 60 ± 10 µM and a kcat [1] of 0.27 ± 0.01 s⁻¹.

B2: haloalkane dehalogenase (DhlA) (Xanthobacter autotrophicus; L262V) (protein)
chain: MINAIRTPDQRFSNLDQYPFSPNYLDDLPGYPGLRAHYLDEGNSDAEDVFLCLHGEPTWSYLYRKMIPVFAESGARVIAPDFFGFGKSDKPVDEEDYTFEFHRNFLLALIERLDLRNITLVVQDWGGFLGLTLPMADPSRFKRLIIMNACLMTDPVTQPAFSAFVTQPADGFTAWKYDLVTPSDLRLDQFMKRWAPTLTEAEASAYAAPFPDTSYQAGVRKFPKMVAQRDQACIDISTEAISFWQNDWNGQTFMAIGMKDKVLGPDVMYPMKALINGCPEPLEIADAGHFVQEFGEQVAREALKHFAETE
B2 was tested, and the Km [1] was 250 ± 30 µM and the kcat [1] was 0.25 ± 0.01 s⁻¹.

B3: haloalkane dehalogenase (DhlA) (Xanthobacter autotrophicus; F128L/L262V) (protein)
chain: MINAIRTPDQRFSNLDQYPFSPNYLDDLPGYPGLRAHYLDEGNSDAEDVFLCLHGEPTWSYLYRKMIPVFAESGARVIAPDFFGFGKSDKPVDEEDYTFEFHRNFLLALIERLDLRNITLVVQDWGGLLGLTLPMADPSRFKRLIIMNACLMTDPVTQPAFSAFVTQPADGFTAWKYDLVTPSDLRLDQFMKRWAPTLTEAEASAYAAPFPDTSYQAGVRKFPKMVAQRDQACIDISTEAISFWQNDWNGQTFMAIGMKDKVLGPDVMYPMKALINGCPEPLEIADAGHFVQEFGEQVAREALKHFAETE
B3 gave a Km [2] of 1040 ± 60 µM and a kcat [2] of 0.18 ± 0.01 s⁻¹.

B4: haloalkane dehalogenase (DhlA) (Xanthobacter autotrophicus; F128L/L262I) (protein)
chain: MINAIRTPDQRFSNLDQYPFSPNYLDDLPGYPGLRAHYLDEGNSDAEDVFLCLHGEPTWSYLYRKMIPVFAESGARVIAPDFFGFGKSDKPVDEEDYTFEFHRNFLLALIERLDLRNITLVVQDWGGLLGLTLPMADPSRFKRLIIMNACLMTDPVTQPAFSAFVTQPADGFTAWKYDLVTPSDLRLDQFMKRWAPTLTEAEASAYAAPFPDTSYQAGVRKFPKMVAQRDQACIDISTEAISFWQNDWNGQTFMAIGMKDKILGPDVMYPMKALINGCPEPLEIADAGHFVQEFGEQVAREALKHFAETE
B4 was tested, and the Km [1] was 1080 ± 100 µM and the kcat [1] was 0.36 ± 0.02 s⁻¹.

B5: haloalkane dehalogenase (DhlA) (Xanthobacter autotrophicus; F128L) (protein)
chain: MINAIRTPDQRFSNLDQYPFSPNYLDDLPGYPGLRAHYLDEGNSDAEDVFLCLHGEPTWSYLYRKMIPVFAESGARVIAPDFFGFGKSDKPVDEEDYTFEFHRNFLLALIERLDLRNITLVVQDWGGLLGLTLPMADPSRFKRLIIMNACLMTDPVTQPAFSAFVTQPADGFTAWKYDLVTPSDLRLDQFMKRWAPTLTEAEASAYAAPFPDTSYQAGVRKFPKMVAQRDQACIDISTEAISFWQNDWNGQTFMAIGMKDKLLGPDVMYPMKALINGCPEPLEIADAGHFVQEFGEQVAREALKHFAETE
For B5, the Km [1] was 700 ± 30 µM and the kcat [1] was 0.05 ± 0.01 s⁻¹.
